Experimental data reported in publication doi:10.1101/2024.07.12.603331.

Molecular target: soluble extracellular domain of human DPP4 (residues S39-P766) (human), P27487
Assay: SEC-MALS
Conditions: remark: other sources report otherwise

B1: soluble extracellular domain of human DPP4 (residues S39-P766), P27487 39-766 (domain or fragment)
chain: SRKTYTLTDYLKNTYRLKLYSLRWISDHEYLYKQENNILVFNAEYGNSSVFLENSTFDEFGHSINDYSISPDGQFILLEYNYVKQWRHSYTASYDIYDLNKRQLITEERIPNNTQWVTWSPVGHKLAYVWNNDIYVKIEPNLPSYRITWTGKEDIIYNGITDWVYEEEVFSAYSALWWSPNGTFLAYAQFNDTEVPLIEYSFYSDESLQYPKTVRVPYPKAGAVNPTVKFFVVNTDSLSSVTNATSIQITAPASMLIGDHYLCDVTWATQERISLQWLRRIQNYSVMDICDYDESSGRWNCLVARQHIEMSTTGWVGRFRPSEPHFTLDGNSFYKIISNEEGYRHICYFQIDKKDCTFITKGTWEVIGIEALTSDYLYYISNEYKGMPGGRNLYKIQLSDYTKVTCLSCELNPERCQYYSVSFSKEAKYYQLRCSGPGLPLYTLHSSVNDKGLRVLEDNSALDKMLQNVQMPSKKLDFIILNETKFWYQMILPPHFDKSKKYPLLLDVYAGPCSQKADTVFRLNWATYLASTENIIVASFDGRGSGYQGDKIMHAINRRLGTFEVEDQIEAARQFSKMGFVDNKRIAIWGWSYGGYVTSMVLGSGSGVFKCGIAVAPVSRWEYYDSVYTERYMGLPTPEDNLDHYRNSTVMSRAENFKQVEYLLIHGTADDNVHFQQSAQISKALVDVGVDFQAMWYTDEDHGIASSTAHQHIYTHMSHFIKQCFSLP
With B1 the stoichiometry N was 2.
